According to patent publication US11857601 (dated 2024):

Biological target: Human CTLA-4/CD152, His tag (Sino Biological, Cat: 11159-H08H) (human, UniProt P16410 36-162)
Experiment: BLI

Sequence of Human CTLA-4/CD152, His tag (Sino Biological, Cat: 11159-H08H) (P16410 36-162): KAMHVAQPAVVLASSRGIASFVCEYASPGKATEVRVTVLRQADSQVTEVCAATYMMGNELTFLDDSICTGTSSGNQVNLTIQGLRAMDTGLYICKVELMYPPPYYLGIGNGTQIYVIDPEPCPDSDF

Kd: 3.2 nM
B1: GI101C1 (hCD80-Fc) (Fc fusion)
chain: VIHVTKEVKEVATLSCGHNVSVEELAQTRIYWQKEKKMVLTMMSGDMNIWPEYKNRTIFDITNNLSIVILALRPSDEGTYECVVLKYEKDAFKREHLAEVTLSVKADFPTPSISDFEIPTSNIRRIICSTSGGFPEPHLSWLENGEELNAINTTVSQDPETELYAVSSKLDFNMTTNHSFMCLIKYGHLRVNQTFNWNTTKQEHFPDNGSGGGGSGGGGSGGGGSAESKYGPPCPPCPAPEAAGGPSVFLFPPKPKDQLMISRTPEVTCVVVDVSQEDPEVQFNWYVDGVEVHNAKTKPREEQFNSTYRVVSVLTVLHQDWLNGKEYKCKVSNKGLPSSIEKTISKAKGQPREPQVYTLPPSQEEMTKNQVSLTCLVKGFYPSDIAVEWESNGQPENNYKTTPPVLDSDGSFFLYSRLTVDKSRWQEGNVFSCSVLHEALHNHYTQKSLSLSLG
